# Measured values: publication PMC4751435 (2016)
# B1: luciferase-FOXP2 (wild-type, full-length 1-715) [human] / YFP-PIAS3 [human] (parent complex)
# chain 1: MMQESATETISNSSMNQNGMSTLSSQLDAGSRDGRSSGDTSSEVSTVELLHLQQQQALQAARQLLLQQQTSGLKSPKSSDKQRPLQVPVSVAMMTPQVITPQQMQQILQQQVLSPQQLQALLQQQQAVMLQQQQLQEFYKKQQEQLHLQLLQQQQQQQQQQQQQQQQQQQQQQQQQQQQQQQQQQQQQQQQHPGKQAKEQQQQQQQQQQLAAQQLVFQQQLLQMQQLQQQQHLLSLQRQGLISIPPGQAALPVQSLPQAGLSPAEIQQLWKEVTGVHSMEDNGIKHGGLDLTTNNSSSTTSSNTSKASPPITHHSIVNGQSSVLSARRDSSSHEETGASHTLYGHGVCKWPGCESICEDFGQFLKHLNNEHALDDRSTAQCRVQMQVVQQLEIQLSKERERLQAMMTHLHMRPSEPKPSPKPLNLVSSVTMSKNMLETSPQSLPQTPTTPTAPVTPITQGPSVITPASVPNVGAIRRRHSDKYNIPMSSEIAPNYEFYKNADVRPPFTYATLIRQAIMESSDRQLTLNEIYSWFTRTFAYFRRNAATWKNAVRHNLSLHKCFVRVENVKGAVWTVDEVEYQKRRSQKITGSPTLVKNIPTSLGYGAALNASLQAALAESSLPLLSNPGLINNASSGLLQAVHEDLNGSLDHIDSNGNSSPGCSPQPHIHSIHVKEEPVIAEDEDCPMSLVTTANHSPELEDDREIEEEPLSEDLE
# chain 2: MAELGELKHMVMSFRVSELQVLLGFAGRNKSGRKHELLAKALHLLKSSCAPSVQMKIKELYRRRFPRKTLGPSDLSLLSLPPGTSPVGSPGPLAPIPPTLLAPGTLLGPKREVDMHPPLPQPVHPDVTMKPLPFYEVYGELIRPTTLASTSSQRFEEAHFTFALTPQQVQQILTSREVLPGAKCDYTIQVQLRFCLCETSCPQEDYFPPNLFVKVNGKLCPLPGYLPPTKNGAEPKRPSRPINITPLARLSATVPNTIVVNWSSEFGRNYSLSVYLVRQLTAGTLLQKLRAKGIRNPDHSRALIKEKLTADPDSEVATTSLRVSLMCPLGKMRLTVPCRALTCAHLQSFDAALYLQMNEKKPTWTCPVCDKKAPYESLIIDGLFMEILSSCSDCDEIQFMEDGSWCPMKPKKEASEVCPPPGYGLDGLQYSPVQGGDPSENKKKVEVIDLTIESSSDEEDLPPTKKHCSVTSAAIPALPGSKGVLTSGHQPSSVLRSPAMGTLGGDFLSSLPLHEYPPAFPLGADIQGLDLFSFLQTESQHYGPSVITSLDEQDALGHFFQYRGTPSHFLGPLAPTLGSSHCSATPAPPPGRVSSIVAPGGALREGHGGPLPSGPSLTGCRSDIISLD
# B2: luciferase-FOXP2 (wild-type, full-length 1-715) [human] / YFP-PIAS1 (wild-type) [human] (parent complex)
# chain 1: B1 chain 1
# chain 2: MADSAELKQMVMSLRVSELQVLLGYAGRNKHGRKHELLTKALHLLKAGCSPAVQMKIKELYRRRFPQKIMTPADLSIPNVHSSPMPATLSPSTIPQLTYDGHPASSPLLPVSLLGPKHELELPHLTSALHPVHPDIKLQKLPFYDLLDELIKPTSLASDNSQRFRETCFAFALTPQQVQQISSSMDISGTKCDFTVQVQLRFCLSETSCPQEDHFPPNLCVKVNTKPCSLPGYLPPTKNGVEPKRPSRPINITSLVRLSTTVPNTIVVSWTAEIGRNYSMAVYLVKQLSSTVLLQRLRAKGIRNPDHSRALIKEKLTADPDSEIATTSLRVSLLCPLGKMRLTIPCRALTCSHLQCFDATLYIQMNEKKPTWVCPVCDKKAPYEHLIIDGLFMEILKYCTDCDEIQFKEDGTWAPMRSKKEVQEVSASYNGVDGCLSSTLEHQVASHHQSSNKNKKVEVIDLTIDSSSDEEEEEPSAKRTCPSLSPTSPLNNKGILSLPHQASPVSRTPSLPAVDTSYINTSLIQDYRHPFHMTPMPYDLQGLDFFPFLSGDNQHYNTSLLAAAAAAVSDDQDLLHSSRFFPYTSSQMFLDQLSAGGSTSLPTTNGSSSGSNSSLVSSNSLRESHSHTVTNRSSTDTASIFGIIPDIISLD
# B3: luciferase-FOXP2 (wild-type, full-length 1-715) [human] / YFP-PIAS4 [human] (parent complex)
# chain 1: B1 chain 1
# chain 2: MAAELVEAKNMVMSFRVSDLQMLLGFVGRSKSGLKHELVTRALQLVQFDCSPELFKKIKELYETRYAKKNSEPAPQPHRPLDPLTMHSTYDRAGAVPRTPLAGPNIDYPVLYGKYLNGLGRLPAKTLKPEVRLVKLPFFNMLDELLKPTELVPQNNEKLQESPCIFALTPRQVELIRNSRELQPGVKAVQVVLRICYSDTSCPQEDQYPPNIAVKVNHSYCSVPGYYPSNKPGVEPKRPCRPINLTHLMYLSSATNRITVTWGNYGKSYSVALYLVRQLTSSELLQRLKTIGVKHPELCKALVKEKLRLDPDSEIATTGVRVSLICPLVKMRLSVPCRAETCAHLQCFDAVFYLQMNEKKPTWMCPVCDKPAPYDQLIIDGLLSKILSECEDADEIEYLVDGSWCPIRAEKERSCSPQGAILVLGPSDANGLLPAPSVNGSGALGSTGGGGPVGSMENGKPGADVVDLTLDSSSSSEDEEEEEEEEEDEDEEGPRPKRRCPFQKGLVPAC
# B4: luciferase-FOXP2 (wild-type, full-length 1-715) [human] / YFP-PIAS2 [human] (parent complex)
# chain 1: B1 chain 1
# chain 2: MADFEELRNMVSSFRVSELQVLLGFAGRNKSGRKHDLLMRALHLLKSGCSPAVQIKIRELYRRRYPRTLEGLSDLSTIKSSVFSLDGGSSPVEPDLAVAGIHSLPSTSVTPHSPSSPVGSVLLQDTKPTFEMQQPSPPIPPVHPDVQLKNLPFYDVLDVLIKPTSLVQSSIQRFQEKFFIFALTPQQVREICISRDFLPGGRRDYTVQVQLRLCLAETSCPQEDNYPNSLCIKVNGKLFPLPGYAPPPKNGIEQKRPGRPLNITSLVRLSSAVPNQISISWASEIGKNYSMSVYLVRQLTSAMLLQRLKMKGIRNPDHSRALIKEKLTADPDSEIATTSLRVSLMCPLGKMRLTIPCRAVTCTHLQCFDAALYLQMNEKKPTWICPVCDKKAAYESLILDGLFMEILNDCSDVDEIKFQEDGSWCPMRPKKEAMKVSSQPCTKIESSSVLSKPCSVTVASEASKKKVDVIDLTIESSSDEEEDPPAKRKCIFMSETQSSPTKGVLMYQPSSVRVPSVTSVDPAAIPPSLTDYSVPFHHTPISSMSSDLPGLDFLSLIPVDPQYCPPMFLDSLTSPLTASSTSVTTTSSHESSTHVSSSSSRSETGVITSSGSNIPDIISLD
# Variants of: B1
# Assay: BRET; control donor est. 0.040; read off a plot
row,Variant,response [BRET ratio]
1,chain 1 K674R,~0.087

# Variants of: B1
# Assay: BRET; HEK293 cells; n = 3; control donor (nuclear-targeted luciferase) est. -0.003; read off a plot
row,Variant,response [BRET ratio]
1,chain 1 R553H,~0.026

# Variants of: B2
# Assay: BRET; HEK293 cells; n = 3; control donor (nuclear-targeted luciferase) est. 0.000; read off a plot
row,Variant,response [BRET ratio]
1,chain 1 R553H,~0.014

# Variants of: B2
# Assay: BRET; control donor est. 0.036; read off a plot
row,Variant,response [BRET ratio]
1,chain 1 K674R,~0.11

# Variants of: B3
# Assay: BRET; control donor est. 0.026; read off a plot
row,Variant,response [BRET ratio]
1,chain 1 K674R,~0.071

# Variants of: B3
# Assay: BRET; HEK293 cells; n = 3; control donor (nuclear-targeted luciferase) est. 0.001; read off a plot
row,Variant,response [BRET ratio]
1,chain 1 R553H,~-0.006

# Variants of: B4
# Assay: BRET; control donor est. 0.030; read off a plot
row,Variant,response [BRET ratio]
1,chain 1 K674R,~0.047

# Variants of: B4
# Assay: BRET; HEK293 cells; n = 3; control donor (nuclear-targeted luciferase) est. -0.008; read off a plot
row,Variant,response [BRET ratio]
1,chain 1 R553H,~-0.005
